Test results reported in US20170088605A1 (Novartis, published 2017).
Where a chain is given by its changes, count along the chain named. Like-named read-outs stand apart in the source and are kept apart here.

Experiments:
Experiment in all cases: cell-based or functional assay
[1] = target: BKV serotype III chimeric infectious virus (VP1 of isolate AS) (BK virus serotype III)
[2] = target: BKV serotype II chimeric infectious virus (VP1 of isolate SB) (BK virus serotype II)
[3] = target: JCV infectious virus, isolates Mad-1 and Mad-4 (VP1) (JC virus)
[4] = target: T1, BKV serotype I infectious virus (VP1) (BK virus serotype I, UniProt P03088 1-362)
T1 sequence (looked up): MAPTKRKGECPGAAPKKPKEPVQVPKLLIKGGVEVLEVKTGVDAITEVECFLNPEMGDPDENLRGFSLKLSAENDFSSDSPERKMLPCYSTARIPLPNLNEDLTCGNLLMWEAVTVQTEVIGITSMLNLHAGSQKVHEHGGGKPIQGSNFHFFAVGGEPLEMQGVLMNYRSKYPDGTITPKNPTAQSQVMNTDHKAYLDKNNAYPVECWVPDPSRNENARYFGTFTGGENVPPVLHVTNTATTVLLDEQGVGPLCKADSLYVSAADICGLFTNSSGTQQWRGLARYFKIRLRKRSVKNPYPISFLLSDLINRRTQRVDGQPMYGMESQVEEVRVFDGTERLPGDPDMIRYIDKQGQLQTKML

[5] = target: BKV serotype IV chimeric infectious virus (VP1 of strain ITA-4) (BK virus serotype IV)
[6] = target: T1, BKV serotype I infectious virus (VP1); remark: listed apart in the source

B1: NEG447 (antibody, human IgG1, lambda, V domains shown)
VH: QVQLQESGPGLVKPSETLSLTCTVSGGSISRDYWSWVRQPPGAGLEWIGNIYYSGSTNYNPSLKSRVTISVATNKKQFSLKLTSVTAADTAVYYCARVPGCSSTSCIDGWFDPWGQGILVTVSS
VL: QSVLTQPPSLSAAPGQKVTISCSGSSSNIGNTYVSWYQQLPGTAPKLLIYDNNKRPSGIPDRFSGSKSGTSATLGITGLQTGDEAVYYCGTWDSSLSAWVFGGGTRLTVLG
neutralization EC50 [1]: > 100 µg/mL | neutralization EC90 [1]: > 100 µg/mL | neutralization EC50 [2]: 0.024 µg/mL | neutralization EC90 [2]: 6.72 µg/mL | neutralization EC50 [3]: > 100 µg/mL | neutralization EC90 [3]: > 100 µg/mL | neutralization EC50 [4]: 0.004 µg/mL | neutralization EC90 [4]: 0.27 µg/mL | neutralization EC50 [5]: 0.012 µg/mL | neutralization EC90 [5]: 0.34 µg/mL

B2: P165E2 (antibody, human IgG1, lambda, V domains shown)
VH: B1 VH with S35T, A43E, T73A, N74S
VL: B1 VL with K17R, D61G, V86A
neutralization EC50 [1]: > 100 µg/mL | neutralization EC90 [1]: > 100 µg/mL | neutralization EC50 [2]: 0.081 µg/mL | neutralization EC90 [2]: 7.98 µg/mL | neutralization EC50 [3]: > 100 µg/mL | neutralization EC90 [3]: > 100 µg/mL | neutralization EC50 [4]: 0.009 µg/mL | neutralization EC90 [4]: 0.37 µg/mL | neutralization EC50 [5]: 0.012 µg/mL | neutralization EC90 [5]: 0.46 µg/mL

B3: 2075-16-1 (antibody, V domains shown)
VH: QVQLQQPGSELVRPGASVKLSCKASGYTFTNYWMHWVKQGHGQGLEWIGNIYPGSGNTNYGENFKSKGTLTVDTSSSTAYMHLSRLTSEDSAVYYCSRSAIYYGYDGHYFAMDYWGQGTSVTVSS
VL: DIQMTQSPSSLSASLGGKVTITCKASQDIRKYIAWYQHKPGKGPRLLINYTSTLQSGIPSRFRGSGSGRDYSFSISNLEPEDIATYYCLQYDNILFTFGTGTKLEIK
neutralization EC50 [6]: 0.065 µg/mL | neutralization EC90 [6]: 1.25 µg/mL

B4: 2075-456-4 (antibody, V domains shown)
VH: QVHLQQSGPELVKPGASVTISCKTSGYSFSSCWMNWVKQRPGQGLEWIGRIYPGDGDTKYTEKFKDKATLTADKSSSTAYMQLSSLTSVDSALYFCAISGSGLPYWGQGTLVTVSE
VL: DIQMTQTTSSLSASLGDRVTISCRASQDIHNYLNWYQQKPDGTIKLLIYSTSRLHSGVPSRFSGSGSGTHYSLTINNLEQEDIATYFCQQTHTLPLTFGAGTKLELK
neutralization EC50 [6]: 0.092 µg/mL | neutralization EC90 [6]: 0.503 µg/mL

B5: 2081-66-5 (antibody, V domains shown)
VH: QVQLQQSGPELVKPGASVRISCKVSGFTFSNSWMNWVKQRPGQGLEWIGRIYPGDGDTQYNEKFKGKATLTADTSSNTAYIQLNSLTSVDSAVFFCARSRSGLDYWGQGTTLTVSS
VL: DIQMTQSTSSLSASLGDRVTISCRASQDIYNYLNWFQQKPDGTVKPLIYSTSRLHSGVSSRFSGSGSGTDYSLTISNLEREDIATYFCHQSHTVPFTFGSGTKLEIK
neutralization EC50 [6]: 0.041 µg/mL | neutralization EC90 [6]: 0.601 µg/mL

B6: 2081-38-5 (antibody, V domains shown)
VH: QVQLQQSGPELVKPGASVKISCKASGYTFSSSWINWVKQRPGQGLEWIGRIYPGDGDTNYNGKFKGKATLTADKSSSTVDMHLSSLTYVDSAVYFCAIHSSGFPHWGQGTLVTVSA
VL: DIQMTQTTSSLSASLGGRVTISCRTSQDISDYLNWYQQKPDGAVKLLIYYTSRLHSGVPSRFSGSGSGTDYSLTISNLEQEDIATYFCQQTNTLPFTFGGGTKLEIK
neutralization EC50 [6]: 0.053 µg/mL | neutralization EC90 [6]: 1.8 µg/mL

B7: 2081-25-6 (antibody, V domains shown)
VH: QVQLQQSGAELVRPGSSVKISCKASGYAFSRYWMNWVKQRPGQGLEWIGQIYPGDGDTKYNGKFKDTATLTADKSSSTAYLQLSSLTSEDSAVYFCAKYGNYGMDYWGQGTSVTVSS
VL: DAVMTQTPLSLPVSLGDQASISCRSSQSLEYGNGNTYLNWYLQKPGQSPQLLIYRVSNRFSGVLDRFSGSGSGTDFTLKISRVEAEDLGVYFCLQFTHVPYTFGGGTKLEIK
neutralization EC50 [6]: 0.213 µg/mL | neutralization EC90 [6]: 0.723 µg/mL
